We go through one molecule from PMC10659949 (Protein Science : A Publication of the Protein Society, 2023).

Holding throughout (details): both partners purified
Test [1] deals with T1, biotinylated α-bungarotoxin from Bungarus multicinctus (Bungarus multicinctus, UniProt P60615).
T1 construct: source: bought: Latoxan (purified, from B. multicinctus), then biotinylated
The test can be described thus: BLI. For orientation: BLI is a label-free optical method that tracks binding on a fibre tip over time.

For test [2], the target named is T2, biotinylated α-cobratoxin from Naja kaouthia (Naja kaouthia, UniProt P01391, biotin (1:1.25 toxin: biotin reagent molar ratio; site not stated)).
T2 construct: source: bought: Latoxan (purified, from N. kaouthia), then biotinylated
The test is described as follows: BLI; […]) in HEPES-MES buffer pH 7.4; dissociation in HEPES-MES pH 7.4; 1:1 binding model, global fit; […].

Test [3] has as its target T2, biotinylated α-cobratoxin from Naja …. The test can be described thus: BLI; […]; dissociation in HEPES-MES pH 5.5; 1:1 binding model, global fit; […].

T2 sequence (P01391 whole entry): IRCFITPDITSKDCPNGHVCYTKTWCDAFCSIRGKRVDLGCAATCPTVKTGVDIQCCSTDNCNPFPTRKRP
T1 sequence (P60615 22-95): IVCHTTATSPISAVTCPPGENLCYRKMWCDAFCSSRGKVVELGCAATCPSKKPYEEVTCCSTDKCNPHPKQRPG

B1: Fab TPL0197_01_C08 (Fab, V domains shown)
VH: EVQLVQSGAEVKKPGASVKVSCKASGYTFTSYGISWVRQAPGQGLEWMGWISAYNGNTNYAQKLQGRVTMTTDTSTSTAYMELRSLRSDDTAVYYCAREEYCSSTSCYVGNYYGMDVWGQGTLVTVSS
VL: DIQMTQSPSSLSASVGDRVTITCQASQDISNYLNWYQQKPGKAPKLLIYAASSLESGVPSRFSGSGSGTEFTLTITNLQVDDFATYYCQRYDSNFAFGQGTKVEIK
notes: also called Fab C08; source: ExpiCHO cells, purified (Ni-NTA / HisTrap Excel, desalting)
As for B1, in test [1], the binding result is recorded as “no binding (tested: 300 nM)”. Further, in test [2], the Kd (usually the concentration at which binding is half-saturated) came out at 44.8 nM and the koff (as a rule, the first-order rate constant of dissociation) is 0.00076 s⁻¹. For the same molecule, in test [3], the off-rate (koff) is 0.00535 s⁻¹.
